Test results: patent publication US20250262210A1 (TRUSTEES OF COLUMBIA UNIVERSITY IN THE CITY OF NEW YORK, published 2025)

T1: LZTR1 R810W-FLAG (human, UniProt Q8N653 1-840)
T1 construct: Stably expressed in U87 cells by lentivirus; also called LZTR1-FLAG-R810W; LZTR1 RW; not shown: FLAG tag
T1 sequence (looked up): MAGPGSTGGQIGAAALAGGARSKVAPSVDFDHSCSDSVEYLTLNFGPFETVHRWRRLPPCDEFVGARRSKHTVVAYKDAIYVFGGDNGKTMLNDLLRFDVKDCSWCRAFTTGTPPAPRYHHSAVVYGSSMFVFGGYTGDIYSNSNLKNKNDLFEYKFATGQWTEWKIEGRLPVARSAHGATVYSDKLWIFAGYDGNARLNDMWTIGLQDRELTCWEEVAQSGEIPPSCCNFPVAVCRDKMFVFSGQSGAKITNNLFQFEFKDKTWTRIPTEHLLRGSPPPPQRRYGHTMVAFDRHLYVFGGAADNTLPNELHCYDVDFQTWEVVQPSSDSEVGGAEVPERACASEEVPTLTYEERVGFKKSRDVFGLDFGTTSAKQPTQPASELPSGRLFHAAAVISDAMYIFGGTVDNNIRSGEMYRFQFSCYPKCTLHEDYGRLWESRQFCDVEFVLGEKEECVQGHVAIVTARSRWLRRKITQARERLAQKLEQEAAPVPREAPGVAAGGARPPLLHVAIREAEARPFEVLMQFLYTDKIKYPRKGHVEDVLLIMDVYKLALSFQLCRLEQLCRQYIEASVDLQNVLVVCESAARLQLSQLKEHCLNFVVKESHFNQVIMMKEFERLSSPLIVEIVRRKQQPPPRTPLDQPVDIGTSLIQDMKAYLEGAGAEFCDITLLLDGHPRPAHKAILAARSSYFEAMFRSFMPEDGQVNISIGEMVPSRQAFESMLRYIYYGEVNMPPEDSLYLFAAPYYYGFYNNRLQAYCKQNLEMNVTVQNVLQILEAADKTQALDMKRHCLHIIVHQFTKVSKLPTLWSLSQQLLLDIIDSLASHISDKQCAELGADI

T2: LZTR1-FLAG (human, UniProt Q8N653 1-840)
T2 construct: Expressed in HEK 293T, HeLa or U87 cells; used as cell lysate; also called LZTR1 wild type-FLAG; LZTR1 WT; not shown: FLAG tag at the C-terminus
T2 sequence (looked up): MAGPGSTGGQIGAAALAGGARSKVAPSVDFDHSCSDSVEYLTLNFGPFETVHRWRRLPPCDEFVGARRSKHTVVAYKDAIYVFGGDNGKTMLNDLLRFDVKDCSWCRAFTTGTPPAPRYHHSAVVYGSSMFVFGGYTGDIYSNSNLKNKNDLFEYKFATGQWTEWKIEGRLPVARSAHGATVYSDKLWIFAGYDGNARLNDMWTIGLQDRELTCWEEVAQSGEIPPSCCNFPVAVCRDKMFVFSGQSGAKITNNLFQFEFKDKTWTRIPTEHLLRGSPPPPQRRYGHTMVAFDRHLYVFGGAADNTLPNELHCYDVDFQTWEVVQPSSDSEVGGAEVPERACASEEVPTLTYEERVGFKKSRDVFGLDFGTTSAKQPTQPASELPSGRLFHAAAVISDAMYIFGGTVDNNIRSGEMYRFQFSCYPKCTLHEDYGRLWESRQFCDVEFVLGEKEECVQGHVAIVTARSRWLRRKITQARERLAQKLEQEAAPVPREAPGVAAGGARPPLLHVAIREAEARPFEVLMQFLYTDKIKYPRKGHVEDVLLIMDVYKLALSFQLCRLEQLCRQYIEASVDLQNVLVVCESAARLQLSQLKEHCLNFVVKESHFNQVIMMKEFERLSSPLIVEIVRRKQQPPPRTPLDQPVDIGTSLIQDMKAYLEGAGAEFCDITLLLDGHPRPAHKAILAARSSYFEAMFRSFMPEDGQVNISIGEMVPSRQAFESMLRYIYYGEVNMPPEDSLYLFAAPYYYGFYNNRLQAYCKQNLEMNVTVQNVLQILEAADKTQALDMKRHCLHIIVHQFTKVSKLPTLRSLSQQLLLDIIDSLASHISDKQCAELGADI


Key:
[1] = target: T1, LZTR1 R810W-FLAG; assay: IP/MS, LZTR1 R810W-FLAG, U87
Method: (§1) Lysates were immunoprecipitated with FLAG affinity matrix and eluted with FLAG peptide. […] Protein gel slices were excised and in-gel digestion performed as previously described (83), with minor modifications. Gel slices were washed with 1:1 A cetonitrile and 100 mM ammonium bicarbonate for 30 min then dehydrated with 100% acetonitrile for 10 min until shrunk. The excess acetonitrile was then removed and the slices dried in speed-vacuum at room temperature for 10 min. Gel slices were reduced with 5 mM DTT for 30 min at 56° C. in an air thermostat, cooled down to room temperature, and alkylated with 11 mM IAA for 30 min with no light. Gel slices were then washed with 100 mM of ammonium bicarbonate and 100% acetonitrile for 10 min each. Excess acetonitrile was removed and dried in a speed-vacuum for 10 min at room temperature and the gel slices were re-hydrated in a solution of 25 ng/μl trypsin in 50 mM ammonium bicarbonate for 30 min on ice and digested overnight at 37° C. in an air thermostat. Digested peptides were collected and further extracted from gel slices in extraction buffer (1:2 ratio by volume of 5% formic acid:acetonitrile) at high speed, shaking in an air thermostat. The supernatants from both extractions were combined and dried in a speed-vacuum. Peptides were dissolved in 3% acetonitrile/0.1% formic acid. Desalted peptides were injected in an EASY-Spray™ PepMap™ RSLC C18 50 cm×[…] column (Thermo Scientific) connected to an Orbitrap Fusion™ Tribrid™ (Thermo Scientific) as described in “Global ubiquitylation enrichment” section. The following modifications were used for protein identification and quantification: oxidation of methionine (M), acetylation of the protein N-terminus, and deamination for asparagine or glutamine (NQ). Results obtained from MaxQuant were assembled in Scaffold for data visualization.

[2] = target: T2, LZTR1-FLAG; assay: IP/MS, LZTR1 wild type-FLAG, U87
Method: as §1

Binder | binding result [1] | binding result [2]
ADAM 15 (other, human, UniProt Q13444 207-863, looked up, Printed as ADAM 15; read as ADAM15) DVVTETKTVELVIVADHSEAQKYRDFQHLLNRTLEVALLLDTFFRPLNVRVALVGLEAWTQRDLVEISPNPAVTLENFLHWRRAHLLPRLPHDSAQLVTGTSFSGPTVGMAIQNSICSPDFSGGVNMDHSTSILGVASSIAHELGHSLGLDHDLPGNSCPCPGPAPAKTCIMEASTDFLPGLNFSNCSRRALEKALLDGMGSCLFERLPSLPPMAAFCGNMFVEPGEQCDCGFLDDCVDPCCDSLTCQLRPGAQCASDGPCCQNCQLRPSGWQCRPTRGDCDLPEFCPGDSSQCPPDVSLGDGEPCAGGQAVCMHGRCASYAQQCQSLWGPGAQPAAPLCLQTANTRGNAFGSCGRNPSGSYVSCTPRDAICGQLQCQTGRTQPLLGSIRDLLWETIDVNGTELNCSWVHLDLGSDVAQPLLTLPGTACGPGLVCIDHRCQRVDLLGAQECRSKCHGHGVCDSNRHCYCEEGWAPPDCTTQLKATSSLTTGLLLSLLVLLVLVMLGASYWYRARLHQRLCQLKGPTCQYRAAQSGPSERPGPPQRALLARGTKQASALSFPAPPSRPLPPDPVSKRLQAELADRPNPPTRPLPADPVVRSPKSQGPAKPPPPRKPLPADPQGRCPSGDLPGPGAGIPPLVVPSRPAPPPPTVSSLYL | binds | binds
ARAF (other, human, UniProt P10398 1-606, looked up) MEPPRGPPANGAEPSRAVGTVKVYLPNKQRTVVTVRDGMSVYDSLDKALKVRGLNQDCCVVYRLIKGRKTVTAWDTAIAPLDGEELIVEVLEDVPLTMHNFVRKTFFSLAFCDFCLKFLFHGFRCQTCGYKFHQHCSSKVPTVCVDMSTNRQQFYHSVQDLSGGSRQHEAPSNRPLNELLTPQGPSPRTQHCDPEHFPFPAPANAPLQRIRSTSTPNVHMVSTTAPMDSNLIQLTGQSFSTDAAGSRGGSDGTPRGSPSPASVSSGRKSPHSKSPAEQRERKSLADDKKKVKNLGYRDSGYYWEVPPSEVQLLKRIGTGSFGTVFRGRWHGDVAVKVLKVSQPTAEQAQAFKNEMQVLRKTRHVNILLFMGFMTRPGFAIITQWCEGSSLYHHLHVADTRFDMVQLIDVARQTAQGMDYLHAKNIIHRDLKSNNIFLHEGLTVKIGDFGLATVKTRWSGAQPLEQPSGSVLWMAAEVIRMQDPNPYSFQSDVYAYGVVLYELMTGSLPYSHIGCRDQIIFMVGRGYLSPDLSKISSNCPKAMRRLLSDCLKFQREERPLFPQILATIELLQRSLPKIERSASEPSLHRTQADELPACLLSAARLVP | binds | 
AHR (other, human, UniProt P35869 11-848, looked up) ASRKRRKPVQKTVKPIPAEGIKSNPSKRHRDRLNTELDRLASLLPFPQDVINKLDKLSVLRLSVSYLRAKSFFDVALKSSPTERNGGQDNCRAANFREGLNLQEGEFLLQALNGFVLVVTTDALVFYASSTIQDYLGFQQSDVIHQSVYELIHTEDRAEFQRQLHWALNPSQCTESGQGIEEATGLPQTVVCYNPDQIPPENSPLMERCFICRLRCLLDNSSGFLAMNFQGKLKYLHGQKKKGKDGSILPPQLALFAIATPLQPPSILEIRTKNFIFRTKHKLDFTPIGCDAKGRIVLGYTEAELCTRGSGYQFIHAADMLYCAESHIRMIKTGESGMIVFRLLTKNNRWTWVQSNARLLYKNGRPDYIIVTQRPLTDEEGTEHLRKRNTKLPFMFTTGEAVLYEATNPFPAIMDPLPLRTKNGTSGKDSATTSTLSKDSLNPSSLLAAMMQQDESIYLYPASSTSSTAPFENNFFNESMNECRNWQDNTAPMGNDTILKHEQIDQPQDVNSFAGGHPGLFQDSKNSDLYSIMKNLGIDFEDIRHMQNEKFFRNDFSGEVDFRDIDLTDEILTYVQDSLSKSPFIPSDYQQQQSLALNSSCMVQEHLHLEQQQQHHQKQVVVEPQQQLCQKMKHMQVNGMFENWNSNQFVPFNCPQQDPQQYNVFTDLHGISQEFPYKSEMDSMPYTQNFISCNQPVLPQHSKCTELDYPMGSFEPSPYPTTSSLEDFVTCLQLPENQKHGLNPQSAIITPQTCYAGAVSMYQCQPEPQHTHVGQMQYNPVLPGQQAFLNKFQNGVLNETYPAELNNINNTQTTTHLQPLHHPSEARPFPDLTSSGFL | binds | binds
